Patent US20260132197A1 (NANJING LEGEND BIOTECH, published 2026)
Each block holds one binder with its values, some of them ahead of it.

Assays:
[1] = target: T1, human CD47 on cells (SHP-77 tumor cells, human red blood cells, CCRF-CEM cells, human CD47 CHO-K1 stable cell … (human, UniProt Q08722 19-323)); assay: flow cytometry on human RBCs;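 further: antibody binding measured by flow cytometry as geometric mean fluorescence intensity over a range of antibody concentrations, with EC50 and maximum taken from a sigmoidal dose-response fit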
T1 construct: whole, on cells; also called RBC

[2] = target: T1, human CD47 on cells (SHP-77 tumor …); assay: flow cytometry on SHP-77 cells
[3] = target: T2, wild type human CD47 (Acro Biosystems, cat. no. CD7-H5227) (human, UniProt Q08722 19-139); assay: SPR, IgG captured, CD47 in flow; exp 3
T2 construct: Bought protein used as SPR analyte; also called Human CD47 wt; wild-type CD47

Human CD47-C33G [4] = target: T3, Human CD47-C33G (human, UniProt Q08722 19-135); assay: SPR, IgG captured, CD47 in flow; exp 3
T3 construct: also called CD47 mutein with C33G mutation

[5] = target: T1, human CD47 on cells (SHP-77 tumor …); assay: flow cytometry on human CD47 CHO-K1 cells
[6] = target: T4, cynomolgus CD47 on CHO-K1 stable cell line (cynomolgus, UniProt A0A5F8AK49 19-323 (rhesus entry)); assay: flow cytometry on cynomolgus CD47 CHO-K1 cells
T4 construct: whole, on cells; also called cynomolgus CD47/CHO-K1

[7] = target: T1, human CD47 on cells (SHP-77 tumor …); assay: flow cytometry on human RBCs; poor fitting, not accurate;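 on Fitted Maximal MFI: antibody binding measured by flow cytometry as geometric mean fluorescence intensity over a range of antibody concentrations, with EC50 and maximum taken from a sigmoidal dose-response fit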
[8] = target: T2, wild type human CD47 (Acro Biosystems, …); assay: SPR, IgG captured, CD47 in flow; exp 1
Human CD47-C33G [9] = target: T3, Human CD47-C33G; assay: SPR, IgG captured, CD47 in flow; exp 1
[10] = target: T2, wild type human CD47 (Acro Biosystems, …); assay: SPR, IgG captured, CD47 in flow; exp 4
Human CD47-C33G [11] = target: T3, Human CD47-C33G; assay: SPR, IgG captured, CD47 in flow; exp 4
[12] = target: T2, wild type human CD47 (Acro Biosystems, …); assay: SPR, IgG captured, CD47 in flow; exp 1; remark: listed apart in the source
Human CD47-C33G [13] = target: T3, Human CD47-C33G; assay: SPR, IgG captured, CD47 in flow; exp 1; remark: listed apart in the source
[14] = target: T2, wild type human CD47 (Acro Biosystems, …); assay: SPR, IgG captured, CD47 in flow; exp 2;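 further: rates derived from association and dissociation curves, KD estimated from them, C33G mutein used to avoid CD47 IgV homodimers for true monovalent affinity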
Human CD47-C33G [15] = target: T3, Human CD47-C33G; assay: SPR, IgG captured, CD47 in flow; exp 2;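 further: rates derived from association and dissociation curves, KD estimated from them, C33G mutein used to avoid CD47 IgV homodimers for true monovalent affinity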
[16] = target: T2, wild type human CD47 (Acro Biosystems, …); assay: SPR, IgG captured, CD47 in flow; exp 3; remark: listed apart in the source
Human CD47-C33G [17] = target: T3, Human CD47-C33G; assay: SPR, IgG captured, CD47 in flow; exp 3; remark: listed apart in the source
[18] = target: T2, wild type human CD47 (Acro Biosystems, …); assay: SPR, IgG captured, CD47 in flow; exp 4; remark: listed apart in the source
Human CD47-C33G [19] = target: T3, Human CD47-C33G; assay: SPR, IgG captured, CD47 in flow; exp 4; remark: listed apart in the source
[20] = target: T1, human CD47 on cells (SHP-77 tumor …); assay: flow cytometry on human RBCs; plateau not reached, not accurate;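 on Fitted Maximal MFI: antibody binding measured by flow cytometry as geometric mean fluorescence intensity over a range of antibody concentrations, with EC50 and maximum taken from a sigmoidal dose-response fit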
Human CD47-C33G [21] = target: T3, Human CD47-C33G; assay: SPR, IgG captured, CD47 in flow; exp 1; remark: listed apart in the source

Fitted Maximal MFI [1]: 45300 MFI
EC50 [2]: 6.9 nM
Fitted Maximal MFI [2]: 44700 MFI
Kd [3]: 2.6 nM
koff [3]: 0.0019 s⁻¹
kon [3]: 720000 M⁻¹ s⁻¹
Kd (Human CD47-C33G [4]): 14 nM
koff (Human CD47-C33G [4]): 0.0041 s⁻¹
kon (Human CD47-C33G [4]): 290000 M⁻¹ s⁻¹
EC50 [5]: 1.9 nM
EC50 [6]: 1.8 nM
EC50 [7]: 3.9 nM
B1: 108VH5.M16 / 108VL1.M5 (antibody, human IgG4 S228P, kappa, V domains shown)
VH: EVQLVQSGAEVKKPGASVKVSCKASGYTFTHHWMHWVRQAPGQGLEWMGMIDASDGETRYAQKFQGRVTMTRDTSTSTVYMELSSLRSEDTAVYYCARLGRYYFDYWGQGTLVTVSS
VL: EIVLTQSPATLSLSPGERATLSCRASQSVSSYLAWYQQKPGQAPRLLIYGASNRATGIPARFSGSGSGTDFTLTISSLEPEDFAVYYCGESYGHLYTFGGGTKVEIKR
notes: Full-length IgG4 (S228P), kappa; also called VH5.M16 VL1.M5

EC50 [2]: 5.5 nM
Fitted Maximal MFI [2]: 46600 MFI
Kd [8]: 0.4 nM
koff [8]: 0.00042 s⁻¹
kon [8]: 1.1e+06 M⁻¹ s⁻¹
Kd (Human CD47-C33G [9]): 1.8 nM
koff (Human CD47-C33G [9]): 0.00087 s⁻¹
kon (Human CD47-C33G [9]): 480000 M⁻¹ s⁻¹
Kd [3]: 0.41 nM
koff [3]: 0.00041 s⁻¹
kon [3]: 1e+06 M⁻¹ s⁻¹
Kd (Human CD47-C33G [4]): 1.9 nM
koff (Human CD47-C33G [4]): 0.00084 s⁻¹
kon (Human CD47-C33G [4]): 430000 M⁻¹ s⁻¹
Kd [10]: 0.38 nM
koff [10]: 0.00041 s⁻¹
kon [10]: 1.1e+06 M⁻¹ s⁻¹
Kd (Human CD47-C33G [11]): 1.5 nM
koff (Human CD47-C33G [11]): 0.00086 s⁻¹
kon (Human CD47-C33G [11]): 570000 M⁻¹ s⁻¹
Kd [12]: 0.39 nM
koff [12]: 0.00039 s⁻¹
kon [12]: 1e+06 M⁻¹ s⁻¹
Kd (Human CD47-C33G [13]): 2.1 nM
koff (Human CD47-C33G [13]): 0.00087 s⁻¹
kon (Human CD47-C33G [13]): 410000 M⁻¹ s⁻¹
Kd [14]: 0.47 nM
koff [14]: 0.00046 s⁻¹
kon [14]: 980000 M⁻¹ s⁻¹
Kd (Human CD47-C33G [15]): 2.6 nM
koff (Human CD47-C33G [15]): 0.00097 s⁻¹
kon (Human CD47-C33G [15]): 380000 M⁻¹ s⁻¹
Kd [16]: 0.41 nM
koff [16]: 0.00041 s⁻¹
kon [16]: 1e+06 M⁻¹ s⁻¹
Kd (Human CD47-C33G [17]): 1.9 nM
koff (Human CD47-C33G [17]): 0.00084 s⁻¹
kon (Human CD47-C33G [17]): 430000 M⁻¹ s⁻¹
Kd [18]: 0.38 nM
koff [18]: 0.00041 s⁻¹
kon [18]: 1.1e+06 M⁻¹ s⁻¹
Kd (Human CD47-C33G [19]): 1.5 nM
koff (Human CD47-C33G [19]): 0.00086 s⁻¹
kon (Human CD47-C33G [19]): 570000 M⁻¹ s⁻¹
EC50 [5]: 2.6 nM
EC50 [6]: 4.3 nM
EC50 [20]: 7.6 nM
B2: 108VH4.M4-VL1.M1 (antibody, V domains shown)
VH: EVQLVQSGAEVKKPGSSVKVSCKASGYSFTHHWIHWVRQAPGQGLEWMGMIDASDSETRLSQKFKDRVTITADKSTSTAYMELSSLRSEDTAVYYCARLGRYYFDYWGQGTTVTVSS
VL: EIVLTQSPATLSLSPGERATLSCRASENVGTYISWYQQKPGQAPRLLIYGASNRYTGIPARFSGSGSGTDFTLTISSLEPEDFAVYYCGESYGHLYTFGGGTKVEIK
notes: also called original humanized 108C10A6 antibody

fold drop of mono-valent binding affinity (reference not given; Table 2, experiment 1) (Human CD47-C33G [21]): 34 fold
Kd [12]: 5.6 nM
koff [12]: 0.0013 s⁻¹
kon [12]: 230000 M⁻¹ s⁻¹
Kd (Human CD47-C33G [13]): 34 nM
koff (Human CD47-C33G [13]): 0.0034 s⁻¹
kon (Human CD47-C33G [13]): 99000 M⁻¹ s⁻¹
Kd [14]: 5.8 nM
koff [14]: 0.0016 s⁻¹
kon [14]: 280000 M⁻¹ s⁻¹
Kd (Human CD47-C33G [15]): 43 nM
koff (Human CD47-C33G [15]): 0.0038 s⁻¹
kon (Human CD47-C33G [15]): 87000 M⁻¹ s⁻¹
Kd [16]: 6.1 nM
koff [16]: 0.0014 s⁻¹
kon [16]: 230000 M⁻¹ s⁻¹
Kd (Human CD47-C33G [17]): 36 nM
koff (Human CD47-C33G [17]): 0.003 s⁻¹
kon (Human CD47-C33G [17]): 85000 M⁻¹ s⁻¹
Kd [18]: 5.2 nM
koff [18]: 0.0013 s⁻¹
kon [18]: 240000 M⁻¹ s⁻¹
Kd (Human CD47-C33G [19]): 28 nM
koff (Human CD47-C33G [19]): 0.003 s⁻¹
kon (Human CD47-C33G [19]): 110000 M⁻¹ s⁻¹
B3: 108VH10 / 108VL10.M1 (antibody, V domains shown)
VH: EVQLVESGGGLVQPGGSLRLSCAASGYSFTHHWIHWVRQAPGKGLEWVAMIDPSDSETRLSQKFKDRFTISADTSKNTAYLQMNSLRAEDTAVYYCSRLGRYYFDYWGQGTLVTVSS
VL: DIQMTQSPSSLSASVGDRVTITCRASENVGTYISWYQQKPGKAPKLLIYGASNRYTGVPSRFSGSRSGTDFTLTISSLQPEDFATYYCGESYGHLYTFGQGTKVEIK
notes: 4D5-framework series; also called VH10 VL10.M1; straight-graft antibody
